What was measured:
[1] = system: DQ collagen, type IV from human placenta, fluorescein conjugate (Invitrogen)
[2] = biological target: DQ collagen, type I from bovine skin, fluorescein conjugate (Invitrogen) (UniProt P02453)
[3] = biological target: DQ Bovine Serum Albumin, fluorescent quenched (UniProt P02769)
[4] = system: DQ Gelatin from pig skin, fluorescein conjugate (Invitrogen)

Measured: hydrolysis of FITC-quenched protein (fluorescence increase)

Chain of DQ Bovine Serum Albumin, fluorescent quenched (P02769 25-607): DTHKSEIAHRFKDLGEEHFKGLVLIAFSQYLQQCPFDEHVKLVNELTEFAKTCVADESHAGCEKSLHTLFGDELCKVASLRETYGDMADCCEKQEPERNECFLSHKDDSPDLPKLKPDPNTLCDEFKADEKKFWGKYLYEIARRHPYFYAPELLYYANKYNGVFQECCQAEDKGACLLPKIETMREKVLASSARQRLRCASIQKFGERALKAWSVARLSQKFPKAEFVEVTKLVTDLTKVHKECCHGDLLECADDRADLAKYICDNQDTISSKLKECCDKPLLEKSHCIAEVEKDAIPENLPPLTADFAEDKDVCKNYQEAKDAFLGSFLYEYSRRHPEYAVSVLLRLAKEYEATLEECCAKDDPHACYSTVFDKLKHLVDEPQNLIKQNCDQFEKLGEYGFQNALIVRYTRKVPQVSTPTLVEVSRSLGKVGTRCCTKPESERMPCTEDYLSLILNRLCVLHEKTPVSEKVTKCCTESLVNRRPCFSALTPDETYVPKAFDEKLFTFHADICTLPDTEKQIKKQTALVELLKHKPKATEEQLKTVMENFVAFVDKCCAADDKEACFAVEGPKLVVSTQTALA
Chain of DQ collagen, type I from bovine skin, fluorescein conjugate (Invitrogen) (P02453 162-1217, chain 1 of 2): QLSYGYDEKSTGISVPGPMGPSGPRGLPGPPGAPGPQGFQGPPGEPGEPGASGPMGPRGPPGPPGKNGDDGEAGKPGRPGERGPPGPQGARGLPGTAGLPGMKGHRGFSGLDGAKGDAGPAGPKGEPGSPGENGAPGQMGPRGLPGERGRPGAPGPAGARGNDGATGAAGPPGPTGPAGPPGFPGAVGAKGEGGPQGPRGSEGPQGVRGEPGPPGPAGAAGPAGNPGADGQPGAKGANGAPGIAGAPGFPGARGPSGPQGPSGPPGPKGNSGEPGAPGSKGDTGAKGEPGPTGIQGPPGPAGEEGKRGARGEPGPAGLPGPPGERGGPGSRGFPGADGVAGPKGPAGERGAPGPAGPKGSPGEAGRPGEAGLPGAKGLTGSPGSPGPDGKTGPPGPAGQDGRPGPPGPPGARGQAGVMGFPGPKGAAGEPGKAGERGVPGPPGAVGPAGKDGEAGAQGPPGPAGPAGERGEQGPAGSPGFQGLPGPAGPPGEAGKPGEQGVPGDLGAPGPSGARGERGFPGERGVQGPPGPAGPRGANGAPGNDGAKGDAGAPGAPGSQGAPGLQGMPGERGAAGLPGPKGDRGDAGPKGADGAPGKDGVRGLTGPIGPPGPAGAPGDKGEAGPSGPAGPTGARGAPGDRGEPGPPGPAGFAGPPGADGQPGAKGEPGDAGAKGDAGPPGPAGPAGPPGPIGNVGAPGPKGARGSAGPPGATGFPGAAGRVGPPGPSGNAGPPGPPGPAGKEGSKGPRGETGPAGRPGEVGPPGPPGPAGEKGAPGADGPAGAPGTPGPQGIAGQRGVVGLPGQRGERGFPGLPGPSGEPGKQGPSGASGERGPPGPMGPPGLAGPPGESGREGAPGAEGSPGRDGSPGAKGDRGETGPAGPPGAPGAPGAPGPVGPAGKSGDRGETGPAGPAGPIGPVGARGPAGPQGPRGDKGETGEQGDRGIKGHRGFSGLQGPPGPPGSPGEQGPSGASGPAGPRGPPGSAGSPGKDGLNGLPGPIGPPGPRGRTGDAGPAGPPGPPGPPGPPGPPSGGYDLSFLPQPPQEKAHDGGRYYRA
Chain of DQ collagen, type I from bovine skin, fluorescein conjugate (Invitrogen) (P02453 other isoform, or with tags, fused parts or gaps, chain 2 of 2): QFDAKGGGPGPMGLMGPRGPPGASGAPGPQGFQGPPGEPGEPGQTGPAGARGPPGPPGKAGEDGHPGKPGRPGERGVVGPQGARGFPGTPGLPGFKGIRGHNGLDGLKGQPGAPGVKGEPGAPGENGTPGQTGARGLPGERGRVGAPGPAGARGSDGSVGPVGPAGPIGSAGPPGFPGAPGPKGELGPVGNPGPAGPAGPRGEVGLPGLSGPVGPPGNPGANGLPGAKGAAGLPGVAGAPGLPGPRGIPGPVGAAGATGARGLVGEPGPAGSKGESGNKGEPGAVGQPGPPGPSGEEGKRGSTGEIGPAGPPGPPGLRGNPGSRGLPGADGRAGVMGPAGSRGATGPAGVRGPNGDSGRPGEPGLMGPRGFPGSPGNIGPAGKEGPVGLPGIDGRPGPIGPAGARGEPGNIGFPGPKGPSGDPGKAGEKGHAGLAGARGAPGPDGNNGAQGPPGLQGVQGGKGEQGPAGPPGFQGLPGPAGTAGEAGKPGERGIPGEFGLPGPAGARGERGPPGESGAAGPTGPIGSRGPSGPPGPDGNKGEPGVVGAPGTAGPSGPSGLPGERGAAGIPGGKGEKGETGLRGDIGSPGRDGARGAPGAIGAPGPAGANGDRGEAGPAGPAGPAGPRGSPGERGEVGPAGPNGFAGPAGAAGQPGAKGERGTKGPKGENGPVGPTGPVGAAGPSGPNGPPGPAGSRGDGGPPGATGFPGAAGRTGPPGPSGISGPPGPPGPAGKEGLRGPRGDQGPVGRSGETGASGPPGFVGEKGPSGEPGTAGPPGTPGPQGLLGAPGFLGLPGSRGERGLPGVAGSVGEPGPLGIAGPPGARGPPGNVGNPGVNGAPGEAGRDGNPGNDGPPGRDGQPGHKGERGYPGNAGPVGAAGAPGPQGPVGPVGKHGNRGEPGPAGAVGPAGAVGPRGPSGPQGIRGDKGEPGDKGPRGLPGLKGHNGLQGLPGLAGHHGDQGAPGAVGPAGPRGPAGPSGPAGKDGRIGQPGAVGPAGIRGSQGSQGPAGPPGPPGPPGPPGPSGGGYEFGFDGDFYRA

His tagged extra cellular domain of Prostate Specific Membrane Antigen (PSMA), purified from S2 cells
no digestion of any of the proteins: all assays above

Reference: patent US20100047170
